Biological target: KCTD12 (UniProt Q6WVG3)
Assay: anti-Rluc IP of Rluc-KCTD12, GB2 blot
Conditions: reference: GB2-WT, no 8-Br-cAMP; sites S892

percent of reference: 103%
Substance: GABAB2 (GB2) (from UniProt O88871) GB2-WT, 8-Br-cAMP 1 mM 30 min
